Assay [1] concerns the target T1, human programmed death receptor 1 (PD-1) (human, UniProt Q15116 25-288).
T1 construct: whole, on cells; Endogenous PD-1 on T cells of donors or study subjects; also called PD-1 receptor
Description: ratio of in vitro PD-1 receptor saturation EC50 values on CD8+ T cells, reference mAb2.

Assay [2] deals with T1, human programmed death receptor 1 (PD-1). Nature of the assay: in vitro PD-1 receptor saturation on CD8+ T cells, flow cytometry, whole blood, Emax model fit.

T1 sequence (Q15116 25-288): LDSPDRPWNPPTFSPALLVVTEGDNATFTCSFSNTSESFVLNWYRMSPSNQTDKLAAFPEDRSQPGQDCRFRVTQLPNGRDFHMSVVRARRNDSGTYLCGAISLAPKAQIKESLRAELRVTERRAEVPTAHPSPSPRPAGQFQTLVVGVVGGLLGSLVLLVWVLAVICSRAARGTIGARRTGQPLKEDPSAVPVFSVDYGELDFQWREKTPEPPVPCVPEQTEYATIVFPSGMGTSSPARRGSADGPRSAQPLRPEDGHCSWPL

B1: cemiplimab (Catalog No. A2022, Selleckchem) (antibody, V domains shown)
VH: EVQLLESGGVLVQPGGSLRLSCAASGFTFSNFGMTWVRQAPGKGLEWVSGISGGGRDTYFADSVKGRFTISRDNSKNTLYLQMNSLKGEDTAVYYCVKWGNIYFDYWGQGTLVTVSS
VL: DIQMTQSPSSLSASVGDSITITCRASLSINTFLNWYQQKPGKAPNLLIYAASSLHGGVPSRFSGSGSGTDFTLTIRTLQPEDFATYYCQQSSNTPFTFGPGTVVDFR
As to B1, the “Scaling Factor (ratio of EC50 of PD-1 saturation to the EC50 of mAb2)” value in assay [1] stood at 2.67. The EC95 (usually the concentration needed for an effect of 95%) in assay [2] is 0.366 µg/mL.

For the origin of these results see patent US20250059280A1 (AbbVie / Abbott, published 2025).
